Measurements as given in article PMC3518436.

Target: beclin 1 (UniProt O88597)
Test: anti-BCL2 IP, beclin 1 blot
Settings: sites T69,S70,S84

| binding against the reference (reference: wild-type muscle, exercised) | binding against the reference (reference: wild-type MEFs, starved) | Substance |
| --- | --- | --- |
| stronger | – | BCL2 (from UniProt P10417) BCL2 AAA muscle, exercised |
| – | stronger | BCL2 (from UniProt P10417) BCL2 AAA MEFs, starved |
